Laboratory results: US20220195043A1 (BEIJING MABWORKS BIOTECH, published 2022)
Changes are numbered by the printed parent chain. Like-named read-outs stand apart in the source and are kept apart here.

T1: monkey CD3ε-his (Cat #: 90047-C08H, SinoBiological, China) (monkey, UniProt Q95LI5 22-117)
T1 construct: Bought protein; also called monkey CD3ε protein; recombinant monkey CD3ε
T1 sequence: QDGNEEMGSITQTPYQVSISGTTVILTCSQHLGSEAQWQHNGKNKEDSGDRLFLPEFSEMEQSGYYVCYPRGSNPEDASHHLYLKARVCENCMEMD

T2: human CD20 (HEK293A/human CD20 cells) (human, UniProt P11836 1-297)
T2 sequence: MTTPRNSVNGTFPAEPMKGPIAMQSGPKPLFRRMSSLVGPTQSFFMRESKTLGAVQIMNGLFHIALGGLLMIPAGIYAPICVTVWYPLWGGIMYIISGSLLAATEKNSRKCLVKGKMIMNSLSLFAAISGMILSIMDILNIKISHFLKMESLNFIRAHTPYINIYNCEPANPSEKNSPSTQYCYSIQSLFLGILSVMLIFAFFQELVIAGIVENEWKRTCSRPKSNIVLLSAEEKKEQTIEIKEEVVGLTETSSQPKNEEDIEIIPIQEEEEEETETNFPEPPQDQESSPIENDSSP

T3: monkey CD20 (HEK293A/monkey CD20 cells) (monkey, UniProt P11836 1-297 (human entry))
T3 construct: Stably expressed on HEK293A cells; also called cynomolgus CD20
T3 chain: T2 sequence with S25P, F31L, T51A, A157V, N166Y, K217R, N226S, I227V, T239V

B1: chimeric anti-CD3 antibody CD3-19 (full length, human IgG1) (antibody, V domains shown)
VH: EVKLLESGGGLVQPKGSLKLSCAASGFTFNSYAMNWVRQAPGKGLEWVARIRSKYNNYATYYADSVKDRFTISRDDSQSILYLQMNNLKTEDTAMYYCVRHGNFGNSYLSYWAYWGQGTLVTVSA
VL: QAVVTQESALTTSPGETVTLTCDSSTGAVTTSNYANWVQEKPDHLFTGLIGGTQRSAPGVPARFSGSLIGDKAALTITGAQTEDEAIYFCVLWYSNLWVFGGGTKLTVLG
notes: also called chimeric CD3-19 antibody; parent antibody
B2: MBS303-1 (bispecific antibody against CD3 and CD20, MIL220 + MIL221-1) (bispecific antibody, human IgG1, kappa, lambda, L234A L235A, N297A)
heavy 1: QVQLVQSGAEVKKPGSSVKVSCKASGYAFSYSWINWVRQAPGQGLEWMGRIFPGDGDTDYNGKFKGRVTITADKSTSTAYMELSSLRSEDTAVYYCARNVFDGYWLVYWGQGTLVTVSSASTKGPSVFPLAPSSKSTSGGTAALGCLVKDYFPEPVTVSWNSGALTSGVHTFPAVLQSSGLYSLSSVVTVPSSSLGTQTYICNVNHKPSNTKVDKKVEPKSCDKTHTCPPCPAPEAAGGPSVFLFPPKPKDTLMISRTPEVTCVVVDVSHEDPEVKFNWYVDGVEVHNAKTKPREEQYASTYRVVSVLTVLHQDWLNGKEYKCKVSNKALPAPIEKTISKAKGQPREPQVYTLPPSREEMTKNQVSLSCAVKGFYPSDIAVEWESNGQPENNYKTTPPVLDSDGSFFLVSKLTVDKSRWQQGNVFSCSVMHEALHNHYTQKSLSLSPGK
light 1: DIVMTQTPLSLPVTPGEPASISCRSSKSLLHSNGITYLYWYLQKPGQSPQLLIYQMSNLVSGVPDRFSGSGSGTDFTLKISRVEAEDVGVYYCAQNLELPYTFGGGTKVEIKRTVAAPSVFIFPPSDEQLKSGTASVVCLLNNFYPREAKVQWKVDNALQSGNSQESVTEQDSKDSTYSLSSTLTLSKADYEKHKVYACEVTHQGLSSPVTKSFNRGEC
heavy 2: QVQLVQSGAEVKKPGSSVKVSCKASGYAFSYSWINWVRQAPGQGLEWMGRIFPGDGDTDYNGKFKGRVTITADKSTSTAYMELSSLRSEDTAVYYCARNVFDGYWLVYWGQGTLVTVSSGGGGSGGGGSGGGGSDIVMTQTPLSLPVTPGEPASISCRSSKSLLHSNGITYLYWYLQKPGQSPQLLIYQMSNLVSGVPDRFSGSGSGTDFTLKISRVEAEDVGVYYCAQNLELPYTFGGGTKVEIKGGGGSGGGGSGGGGSEVQLLESGGGLVQPGGSLRLSCAASGFTFNTYAMNWVRQAPGKGLEWVARIRSKYNNYATYYAISVKDRFTISRDNSKNTLYLQMNSLRAEDTAVYYCVKHGNFGNSYLSYWAYWGQGTLVTVSSASTKGPSVFPLAPSSKSTSGGTAALGCLVKDYFPEPVTVSWNSGALTSGVHTFPAVLQSSGLYSLSSVVTVPSSSLGTQTYICNVNHKPSNTKVDKKVEPKSCDKTHTCPPCPAPEAAGGPSVFLFPPKPKDTLMISRTPEVTCVVVDVSHEDPEVKFNWYVDGVEVHNAKTKPREEQYASTYRVVSVLTVLHQDWLNGKEYKCKVSNKALPAPIEKTISKAKGQPREPQVYTLPPSREEMTKNQVSLWCLVKGFYPSDIAVEWESNGQPENNYKTTPPVLDSDGSFFLYSKLTVDKSRWQQGNVFSCSVMHEALHNHYTQKSLSLSPGK
light 2: QAVVTQEPSLTVSPGGTVTLTCQSSTGAVTTNNYANWVQQKPGHAFRGLIGGTKQRAPGVPARFSGSLLGGKAALTLSGVQPEDEAEYYCVLWYSNLWVFGGGTKLTVLGQPKAAPSVTLFPPSSEELQANKATLVCLISDFYPGAVTVAWKADSSPVKAGVETTTPSKQSNNKYAASSYLSLTPEQWKSHRSYSCQVTHEGSTVEKTVAPT
notes: CD20:CD3 = 2:1
B3: MBS303-2 (bispecific antibody against CD3 and CD20, MIL220 + MIL221-2) (bispecific antibody, human IgG1, kappa, lambda, L234A L235A, N297A)
heavy 1: B2 heavy 1
light 1: B2 light 1
heavy 2: B2 heavy 2 with N337D, V356M, K361R
light 2: B2 light 2
notes: CD20:CD3 = 2:1

Tests used:
[1] = target: T4, human TCR/CD3 complex on cell surfaces (primary human CD4+ T cells; Jurkat cells; human PBMCs) (human, UniProt P07766 23-207); test: FACS on primary human CD4+ T cells, PE goat anti-human IgG, MFI
T4 construct: whole, on cells; Native complex on cells; the γ, δ, ζ and TCR chains of the complex are present on the cells too; also called human CD3 complexes on cell surfaces; human CD3+ T cells

[2] = target: T5, human CD3ε-his (Cat #:10977-H08s, SinoBiological, China) (human, UniProt P07766 23-126); test: SPR (BIAcore 8K); human CD3ε-his coupled to CM5 chip, antibody injected
T5 construct: Bought protein; also called human CD3ε protein; recombinant human CD3ε; not shown: his tag

[3] = target: T5, human CD3ε-his (Cat #:10977-H08s, …); test: ELISA: plate coated with human CD3ε-his, antibody titrated, HRP goat anti-human IgG, OD 450
[4] = target: T5, human CD3ε-his (Cat #:10977-H08s, …); test: as above; remark: listed apart in the source
[5] = target: T1, monkey CD3ε-his (Cat #: 90047-C08H, …); test: ELISA: plate coated with monkey CD3ε-his, antibody titrated, HRP goat anti-human IgG, OD 450
[6] = target: T1, monkey CD3ε-his (Cat #: 90047-C08H, …); test: as above; remark: listed apart in the source
[7] = target: T2, human CD20 (HEK293A/human CD20 cells); test: cell-based or functional assay
[8] = target: T5, human CD3ε-his (Cat #:10977-H08s, …); test: SPR (BIAcore 8K); human CD3ε-his coupled to CM5 chip, antibody injected; remark: listed apart in the source
[9] = target: T2, human CD20 (HEK293A/human CD20 cells); test: FACS on HEK293A/human CD20 cells, PE anti-human IgG secondary antibody, MFI
[10] = target: T3, monkey CD20 (HEK293A/monkey CD20 cells); test: FACS on HEK293A/monkey CD20 (CynoCD20) cells, PE anti-human IgG secondary antibody, MFI
[11] = target: T5, human CD3ε-his (Cat #:10977-H08s, …); test: ELISA: plate coated with human CD3ε-his (hCD3ε-his), antibody titrated, HRP goat anti-human IgG, OD450

T5 sequence (P07766 23-126 limits assumed): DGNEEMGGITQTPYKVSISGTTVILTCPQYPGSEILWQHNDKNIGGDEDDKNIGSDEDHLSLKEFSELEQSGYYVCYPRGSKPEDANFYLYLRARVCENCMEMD
T4 sequence (P07766 23-207, one chain of several): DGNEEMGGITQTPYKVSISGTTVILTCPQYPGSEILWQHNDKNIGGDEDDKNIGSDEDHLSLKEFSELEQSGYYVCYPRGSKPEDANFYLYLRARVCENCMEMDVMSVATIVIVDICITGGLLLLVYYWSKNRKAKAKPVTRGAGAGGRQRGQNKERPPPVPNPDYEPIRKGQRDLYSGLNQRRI

| Binder | EC50 (read off the curve) [1] [µg/mL] | kon [2] [M⁻¹ s⁻¹] | EC50 (read off the curve) [3] [µg/mL] | EC50 (read off the curve) [4] [µg/mL] | EC50 (read off the curve) [5] [µg/mL] | EC50 (read off the curve) [6] [µg/mL] | EC50 of killing of HEK293A/hCD20 cells by T cells, MBS303-1 alone [7] [µg/mL] | EC50 of killing of HEK293A/hCD20 cells by T cells, MBS303-1 with 1 µg/ml MIL62 [7] [µg/mL] | Kd [8] [nM] | EC50 (read off the curve) [9] [µg/mL] | binding result [10] | EC50 (read off the curve) [11] [µg/mL] | EC50 of killing of HEK293A/hCD20 cells by T cells, MBS303-2 alone [7] [µg/mL] | EC50 of killing of HEK293A/hCD20 cells by T cells, MBS303-2 with 1 µg/ml MIL62 [7] [µg/mL] | EC50 (read off the curve) [10] [µg/mL] |
| --- | --- | --- | --- | --- | --- | --- | --- | --- | --- | --- | --- | --- | --- | --- | --- |
| B1 | ~0.7 | 119000 | ~0.05 | ~0.05 | ~0.05 | ~0.06 |  |  |  |  |  |  |  |  |  |
| B2 |  |  |  |  |  |  | 0.0076 | 0.0032 | 1.99 | ~0.04 | binds | ~0.06 |  |  |  |
| B3 |  |  |  |  |  |  |  |  | 1.79 | ~0.03 |  | ~0.06 | 0.0098 | 0.0039 | ~0.06 |
